From patent US20060084789A1, “Immunotherapeutic and immunoprphylactic reagents” (priority 2002, published 2006)

B1: Lol p 5: Rye grass pollen allergen purified from RGP extract by SDS-PAGE or affinity chromatography (mAb FMC A7) (protein)
chain: ADAGYTPAAAATPATPAATPAAAGGKATTDEQKLLEDVNAGFKAAVAAAANAPPADKFKIFEAAFSESSKGLLATSAAKAPGLIPKLDTAYDVAYKAAEGATPEAKYDAFVTALTEALRVIAGALEVHAVKPATEEVPAAKIPTGELQIVDKIDAAFKIAATAANAAPTNDKFTVFESAFNKALNECTGGAYETYKFIPSLEAAVKQAYAATVAAAPEVKYAVFEAALTKAITAMTQAQKAGKPAAAAATGAATVATGAATAAAGAATAAAGGYKA
B2: Lol p 1: Rye grass pollen allergen purified from crude RGP extracts by SDS-PAGE (protein)
chain: IAKVPPGPNITAEYGDKWLDAKSTWYGKPTGAGPKDNCGACGYKDVDKAPFNGMTGCGNTPIFKDGRGCGSCFEIKCTKPESCSGEAVTVTITDDNEEPIAPYHFDLSGHAFGSMAKKGEEQKLRASAGELELQFRRVKCKYPDGTKPTFHVEKASNPNYLAILVKYVDGDGDVVAVDIKEKGKDKWIELKESWGAVWRIDTPDKLTGPFTVRYTTEGGTKSEVEDVIPEGWKADTSYSAK
modifications: Lolium perenne
notes: Rye grass pollen allergen purified from crude RGP extracts by SDS-PAGE

How the values were obtained:
[1] = tested on: RGP-specific TCL; test: TCL proliferation assay (3H-thymidine incorporation, stimulation index); type: cell-based, human; conditions: for TCL that responded, response to allergen or peptide: allergen responsiveness considered as response to allergen or peptide; for TCL tested that responded to purified allergen: ten of fourteen TCL (Lol p 1), nine of fifteen TCL (Lol p 5), positive if SI ≥2.5; for Proliferative response, stimulation index: peptides 10 μg/ml
Experimental: Generation of Short-Term RGP-Specific TCL
PBMC were cultured in 24-well plates (Costar, Mass., USA) at 2.5×10^6 cells/well with RGP extract at a concentration of 25 or 50 μg/ml in RPMI 1640 medium (Gibco BRL, NY, USA) supplemented with 2 mM GlutaMAX I (Gibco BRL), 0.05 mg/ml gentamicin (David Bull Laboratories, Mulgrave, Victoria, Australia) and 5% heat-inactivated hunan AB^+ serum (Sigma, Mo., USA) for 7 days at 37° C. in a 5% CO2 humidified incubator. At day 7, cells were washed once and restimulated in 24-well plates at 5×10^5 cells/well width 25 or 50 μg/ml of RGP extract in the presence of 5×10^5 cells/well irradiated (3000 rads) autologous PBMC as a source of antigen presenting cells (APC). At day 2 following restimulation, 10 U/ml of Lymphocult T-LF (LC; Biotest, Germany) was added as a source of IL-2 and at day 4, 1 ml of culture medium was removed and replaced with fresh medium and 10 U/ml of LC. […] In all experiments T cells were rested for 6 to 7 days after the last addition of antigen and APC before testing.
T cells (5×10^4/well) were cultured in 96-well U bottom plates with either RGP extract at concentrations ranging from 25 to 200 μg/ml, purified Lol p 1 (0.12 to 2 μg/ml) or Lol p 5 (0.1 to 10 μg/ml), or Lol p 1 or Lol p 5 peptides (10 μg/ml), or medium alone (to determine background levels of proliferation), in the presence of washed autologous irradiated (3000 rads) PBMC (5×10^4/well). […] Cultures were incubated for 3 days, pulsed for the last 16 hours with ^3H-thymidine (1 μCi/well) and harvested onto glass fibre filters. ^3H-thymidine incorporation was measured by liquid scintillation spectroscopy and the mean counts per minute (cpm) for triplicate cultures was determined. Responses were considered positive if the stimulation index (SI, cpm of antigen-stimulated T cells divided by cpm of unstimulated T cells) was ≧2.5. Where several concentrations of allergen were tested (i.e., RGP, Lol p 1 and Lol p 5), values corresponding to the highest proliferation are shown.

[2] = tested on: oligoclonal house dust mite (HDM)- or low ammoniated latex (LAL)-reactive CD44^+ T cells; test: Mitogenicity check with irrelevant-antigen T cells and irradiated autologous PBMC; type: cell-based; conditions: culture with HDM- or LAL-reactive T cells and irradiated autologous PBMC; data not shown
Description: Mitogenicity of RGP, Lol p 1, Lol p 5 and peptides was excluded by culturing with oligoclonal house dust mite (HDM)- or low ammoniated latex (LAL)-reactive CD44^+ T cells in the presence of irradiated autologous PBMC, and toxicity was excluded by co-culture of antigens with HDM- or LAL-reactive T cells in the presence of IL-2 (data not shown).

| Molecule | TCL that responded, response to allergen or peptide [1] | TCL tested that responded to purified allergen [1] | Mitogenicity [2] | Proliferative response, stimulation index ([1]; Subject 1 TCL, Lol p 1 series (Table 3), RGP and Lol p 1 maximal response) | Proliferative response, stimulation index ([1]; Subject 2 TCL, Lol p 1 series (Table 3), RGP and Lol p 1 maximal response) | Proliferative response, stimulation index ([1]; Subject 4 TCL, Lol p 1 series (Table 3), RGP and Lol p 1 maximal response) | Proliferative response, stimulation index ([1]; Subject 5 TCL, Lol p 1 series (Table 3), RGP and Lol p 1 maximal response) | Proliferative response, stimulation index ([1]; Subject 6 TCL, Lol p 1 series (Table 3), RGP and Lol p 1 maximal response) | Proliferative response, stimulation index ([1]; Subject 8 TCL, Lol p 5 series (Table 4), RGP and Lol p 5 maximal response) | Proliferative response, stimulation index ([1]; Subject 11 TCL, Lol p 5 series (Table 4), RGP and Lol p 5 maximal response) | Proliferative response, stimulation index ([1]; Subject 15 TCL, Lol p 1 series (Table 3), RGP and Lol p 1 maximal response) | Proliferative response, stimulation index ([1]; Subject 19 TCL, Lol p 1 series (Table 3), RGP and Lol p 1 maximal response) | Proliferative response, stimulation index ([1]; Subject 27 TCL, Lol p 5 series (Table 4), RGP and Lol p 5 maximal response, † affinity purified Lol p 5) | Proliferative response, stimulation index ([1]; Subject 38 TCL, Lol p 5 series (Table 4), RGP and Lol p 5 maximal response, * SDS-PAGE purified Lol p 5) |
| --- | --- | --- | --- | --- | --- | --- | --- | --- | --- | --- | --- | --- | --- | --- |
| B1 | 91% | 60% | excluded |  |  |  |  |  |  |  |  |  |  |  |
| B2 | 79% | 71% | excluded | 5.9 | 3.0 | 2.9 | 2.5 | 4.0 | 4.3 | 3.4 | 0.3 | 10.5 | 3.8† | 3.2* |
